Assay results as given in article PMC6179994, “Structural insights on TRPV5 gating by endogenous modulators” (Nature Communications, 2018).

Key:
[1] = biological target: the molecule itself; assay: cryo-EM structure; lipid-bound TRPV5 in detergent (DMNG) with 200 µM diC8 PI(4,5)P2; C4 symmetry, 3.9 Å
[2] = biological target: T1, rat calmodulin (CaM), calcium-activated (rat, UniProt P0DP29 1-149); assay: cryo-EM structure; detergent solubilized TRPV5 (DMNG) incubated 1 h with 10 mM CaCl2 and rat CaM at 1:20 (TRPV5 tetramer:CaM), then SEC; map at 4.4 Å without applied symmetry; conditions: both partners purified
T1 construct: calmodulin, rat; modelled from the N-lobe (residues 6-77) and C-lobe (residues 83-147) of PDB 1CLL; Expressed from the pET 28b vector; The patch clamp experiments used purified CaM from bovine testes bought from Sigma, not this recombinant protein; also called Ca^2+-CaM; source: E. coli Rosetta 2(DE3), purified (phenyl sepharose, AKTA purifier)

- binding result [2]: binds
B1: full-length rabbit TRPV5 (transient receptor potential vanilloid 5) (natural protein, UniProt Q9XSM3 1-730, looked up)
chain: MGACPPKAKGPWAQLQKLLISWPVGEQDWEQYRDRVNMLQQERIRDSPLLQAAKENDLRLLKILLLNQSCDFQQRGAVGETALHVAALYDNLEAATLLMEAAPELAKEPALCEPFVGQTALHIAVMNQNLNLVRALLARGASVSARATGAAFRRSPHNLIYYGEHPLSFAACVGSEEIVRLLIEHGADIRAQDSLGNTVLHILILQPNKTFACQMYNLLLSYDEHSDHLQSLELVPNHQGLTPFKLAGVEGNTVMFQHLMQKRKHVQWTCGPLTSTLYDLTEIDSWGEELSFLELVVSSKKREARQILEQTPVKELVSFKWKKYGRPYFCVLASLYILYMICFTTCCIYRPLKLRDDNRTDPRDITILQQKLLQEAYVTHQDNIRLVGELVTVTGAVIILLLEIPDIFRVGASRYFGQTILGGPFHVIIITYASLVLLTMVMRLTNMNGEVVPLSFALVLGWCSVMYFARGFQMLGPFTIMIQKMIFGDLMRFCWLMAVVILGFASAFHITFQTEDPNNLGEFSDYPTALFSTFELFLTIIDGPANYSVDLPFMYCITYAAFAIIATLLMLNLFIAMMGDTHWRVAQERDELWRAQVVATTVMLERKMPRFLWPRSGICGYEYGLGDRWFLRVENHHDQNPLRVLRYVEAFKCSDKEDGQEQLSEKRPSTVESGMLSRASVAFQTPSLSRTTSQSSNSHRGWEILRRNTLGHLNLGLDLGEGDGEEVYHF
notes: TRPV5, rabbit, full length; tetrameric channel; Eluted from the beads with 1D4 peptide; no removal of the tag is described; source: Saccharomyces cerevisiae, detergent solubilized, purified (1D4 antibody Sepharose beads, SEC on Superose 6)
- stoichiometry N [1]: 4 subunits
